# According to patent US20230025280A1, “PH RESPONSIVE COMPOSITIONS, FORMULATIONS, AND METHODS OF IMAGING A TUMOR” (ONCONANO MEDICINE, INC, priority 2019, published 2023):
# Values joined by “and” are separate entries in the source; they are usually repeats but may differ in a detail not shown here. Identical values can stand only once.
# Experiment: Phase 1 (1a/1b) pharmacokinetics: plasma concentrations after single IV dose (validated direct fluorescence reader assay), noncompartmental analysis
# Type: in vivo, human
# Settings: for AUC0-24 hr / AUCall / AUClast / C10 m / Cmax / T1/2 / Tmax / Plasma Conc: Phase 1b; for AUC0-24 hr / AUCall / AUClast / C10 m / Cmax / T1/2 / Tmax: 1.2 mg/kg single IV; for Plasma Conc: 1.2 mg/kg
# Source text: Phase 1 is a single-Principal Investigator, non-randomized, open-label, single-arm, cross-sectional study to evaluate the safety, PK profile, and imaging feasibility of Compound 1 in patients with solid cancers who require surgical excision. The main purpose of this study was to investigate the safety, PK, and feasibility of Compound 1 as an intra-operative optical imaging agent to detect tumors and metastatic lymph nodes in solid cancers. The study was intended to investigate the optimal dose range of Compound 1 for an adequate TBR and CNR of fluorescence obtained intraoperatively at 24 (±8) hours post dosing and with ex vivo specimens using ICG compatible cameras and imaging devices.
# Phase 1 enrolled 30 patients with solid cancers (HNSCC, breast cancer, esophageal cancer, or colorectal cancer) who have a biopsy-confirmed diagnosis of respective tumor types and are scheduled to undergo surgical resection of the tumor. The study design included a standard 3+3 design for the dose-escalation portion (Phase 1a; N=18 maximum) followed by a dose-expansion portion (Phase 1b; N=15). All patients received a single I.V. dose of Compound 1, followed by routine surgery approximately 24 hours after infusion of Compound 1.
# Phase 1a was a dose-finding study performed in 5 cohorts of 3 patients each. The dose levels evaluated were […], and 1.2 mg/kg, in this sequence. Inter-cohort dose escalation took place after the last patient in the previous cohort completed the Day 10 safety assessment. Safety, PK, and imaging feasibility were evaluated in both the Phase 1a and 1b portions of the study. Patient safety is assessed during the study and for up to 10 days post-dose.
# Study design: Single Compound 1 IV dose was administered as a 1-5 minute IV infusion to patients in five cohorts (0.1, 0.3, 0.5, 0.8, and 1.2 mg/kg) with three patients per cohort in Phase 1a and 15 patients at a dose of 1.2 mg/kg in Phase 1b. Patient demographic information including tumor types is presented in Table 4 and 5 for Phase 1a and Table 5 for Phase 1b. Intertek Pharmaceutical Services (San Diego, Calif.) determined Compound 1 plasma concentrations using a validated direct fluorescence reader assay. Pacific BioDevelopment (Davis, Calif.) performed the PK analysis.
# Sample collection: Blood samples were collected prior to infusion and at 10 minutes and 0.5, 1, 3, 8, 24, 48, 72, and 240 hours after infusion.
# Analysis: Plasma concentration versus time profiles were generated for each patient. Pharmacokinetic parameters were estimated using Phoenix WinNonlin (version 8.0). According to SOP, concentrations reported as BQL were set to 0 except for the 0.5 h sample for subject #ON1102, which was set to LLOQ/2 ([…] value used in parameter calculations) and the 24 and 48 h samples.
# If the coefficient of determination for the terminal slope estimation was less than 0.8, T1/2 was not reported (NR). AUC extrapolated to infinity is not reported for any data set because in all cases the % extrapolated AUC was greater than 20% and thus the AUCinf estimate would not be reliable. The concentration at 10 minutes, the first time point measured (C10m), was also reported for each patient.
# The area under the plasma concentration versus time curves from dosing to the last time point with a measurable concentration (AUClast) was estimated by the linear trapezoid method. The last three or more time points were used to estimate the elimination rate constant (λz) which was used to estimate the terminal-phase half-life (T1/2) and AUC from zero to infinity (AUCINF) from the following equations: […]
substance,measurement,setting,value
PEO90-140-b-P(DBA60-150-r-ICG0-3-r-AMA0-3) [Compound 1],AUC0-24 hr,mean,638 µg·h/mL
same,AUCall,mean,1840 µg·h/mL
same,AUClast,mean,1180 µg·h/mL
same,C10 m,mean,33.2 µg/mL
same,Cmax,mean,34800 ng/mL
same,T1/2,mean,46.4 h
same,Tmax,mean,0.967 h
same,AUC0-24 hr,median,626 µg·h/mL
same,AUCall,median,1460 µg·h/mL
same,AUClast,median,1110 µg·h/mL
same,C10 m,median,32.1 µg/mL
same,Cmax,median,34100 ng/mL
same,T1/2,median,42.6 h
same,Tmax,median,1.00 h
same,Plasma Conc,"0.170 hr, individual subject",27.5 µg/mL and 38.6 µg/mL and 30.3 µg/mL and 31.4 µg/mL and 25.5 µg/mL and 40.0 µg/mL and 47.6 µg/mL and 32.6 µg/mL and 31.3 µg/mL and 36.5 µg/mL and 32.1 µg/mL and 35.8 µg/mL and 33.0 µg/mL and 28.0 µg/mL and 28.5 µg/mL
same,Plasma Conc,"0.170 hr, mean",33.2 µg/mL
same,Plasma Conc,"0.170 hr, median",32.1 µg/mL
same,Plasma Conc,"0.500 hr, individual subject",29.2 μg/mL and 35.2 μg/mL and 30.3 μg/mL and 28.5 μg/mL and 27.6 μg/mL and 40.0 μg/mL and 44.1 μg/mL and 32.0 μg/mL (2×) and 28.9 μg/mL and 34.5 μg/mL and 32.9 μg/mL and 36.4 μg/mL and 31.4 μg/mL and 29.8 μg/mL
same,Plasma Conc,"0.500 hr, mean",32.9 µg/mL
same,Plasma Conc,"0.500 hr, median",32.0 µg/mL
same,Plasma Conc,"1.00 hr, individual subject",25.9 μg/mL and 33.0 μg/mL and 31.3 μg/mL (2×) and 32.6 μg/mL and 23.3 μg/mL and 42.2 μg/mL (2×) and 29.9 μg/mL (2×) and 37.7 μg/mL and 34.1 μg/mL and 35.4 μg/mL and 34.3 μg/mL and 26.8 μg/mL
same,Plasma Conc,"1.00 hr, mean",32.7 µg/mL
same,Plasma Conc,"1.00 hr, median",32.6 µg/mL
same,Plasma Conc,"3.00 hr, individual subject",27.5 μg/mL and 34.3 μg/mL (2×) and 32.4 μg/mL and 31.3 μg/mL and 25.0 μg/mL and 40.1 μg/mL and 35.3 μg/mL and 30.3 μg/mL and 29.6 μg/mL and 31.5 μg/mL and 33.3 μg/mL and 31.2 μg/mL and 26.4 μg/mL and 25.4 μg/mL
same,Plasma Conc,"3.00 hr, mean",31.2 µg/mL
same,Plasma Conc,"3.00 hr, median",31.3 µg/mL
same,Plasma Conc,"8.00 hr, individual subject",21.1 μg/mL and 28.3 μg/mL and 31.3 μg/mL and 26.1 μg/mL and 23.6 μg/mL (2×) and 35.8 μg/mL and 32.6 μg/mL and 25.0 μg/mL and 33.6 μg/mL and 27.9 μg/mL and 32.4 μg/mL and 27.8 μg/mL and 30.0 μg/mL and 24.5 μg/mL
same,Plasma Conc,"8.00 hr, mean",28.2 µg/mL
same,Plasma Conc,"8.00 hr, median",27.9 µg/mL
same,Plasma Conc,"24.0 hr, individual subject",18.9 μg/mL and 29.8 μg/mL and 15.5 μg/mL and 20.2 μg/mL and 15.0 μg/mL and 23.9 μg/mL and 22.7 μg/mL and 19.5 μg/mL and 26.2 μg/mL and 20.3 μg/mL (2×) and 21.2 μg/mL and 18.6 μg/mL and 25.6 μg/mL and 21.0 μg/mL
same,Plasma Conc,"24.0 hr, mean",21.2 µg/mL
same,Plasma Conc,"24.0 hr, median",20.3 µg/mL
same,Plasma Conc,"48.0 hr, individual subject","BQL (BQL (<10 μg/mL), set = 0 for PK analysis) (2×) and 19.9 μg/mL and 18.5 μg/mL and 12.6 μg/mL and 12.0 μg/mL and 16.3 μg/mL and 13.3 μg/mL and 11.8 μg/mL and 15.0 μg/mL and 12.5 μg/mL and 10.2 μg/mL and 22.0 μg/mL and 12.8 μg/mL and 12.3 μg/mL"
same,Plasma Conc,"48.0 hr, mean",12.6 µg/mL
same,Plasma Conc,"48.0 hr, median",12.6 µg/mL
same,Plasma Conc,"72.0 hr, individual subject","BQL (BQL (<10 μg/mL), set = 0 for PK analysis) (8×) and 18.7 μg/mL and 14.9 μg/mL and 10.4 μg/mL and 12.0 μg/mL and 12.8 μg/mL and 13.8 μg/mL and 17.3 μg/mL"
same,Plasma Conc,"72.0 hr, mean",6.66 µg/mL
same,Plasma Conc,"72.0 hr, median",0.00 µg/mL
same,Plasma Conc,"240 hr, individual subject","BQL (BQL (<10 μg/mL), set = 0 for PK analysis)"
same,Plasma Conc,"240 hr, mean",0.00 µg/mL
same,Plasma Conc,"240 hr, median",0.00 µg/mL
same,C10 in relation to dose,from 0.3 through 1.2 mg/kg,appears to be dose proportional
